# Results published in the supplement of paper PMC10065799, “High-throughput profiling of sequence recognition by tyrosine kinases and SH2 domains using bacterial peptide display” (eLife, 2023).
# Target: Grb2 SH2 (UniProt P62993)
# Assay: SH2 binding enrichment of the phosphorylated peptide, bacterial display (enrichment ratio); higher = better substrate or ligand; peptides without Tyr show the background
# 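Further: peptide library displayed on the E. coli surface as eCPX fusions, selected cells deep-sequenced, score is each peptide's frequency after selection divided by its frequency in the input.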
# Sequence of Grb2 SH2 (P62993 whole entry, looked up): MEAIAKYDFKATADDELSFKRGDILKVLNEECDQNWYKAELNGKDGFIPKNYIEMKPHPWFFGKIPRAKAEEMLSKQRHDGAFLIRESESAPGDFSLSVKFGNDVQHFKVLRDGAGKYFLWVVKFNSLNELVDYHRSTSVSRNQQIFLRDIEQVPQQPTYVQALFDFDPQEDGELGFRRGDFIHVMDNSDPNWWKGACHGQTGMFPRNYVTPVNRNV
row,Sequence,SH2 binding enrichment
1,WGLRSYFETSK [MAGED2_Y448_YF],1.08
2,FLAATYPTLGQ [NF1_Y2508_V2511L_YF],0.866
3,DLQDENDFKCK [STAT1_Y170_Y170N],0.897
4,PASLSYLSFEG [EXOSC3_Y143],0.762
5,KHASTYREAAT [DEAF1_Y483],0.874
6,GMKIVYVYVKK [DNAI2_Y5_E2K],1.23
7,QQLDEYQKLLD [LMNA_Y359_E361K],0.708
8,LLKAGYQGVLR [TTPA_Y100_H101Q],1.38
9,EIRTQYEAMAS [GFAP_Y242],0.702
10,PVQDAYQKVVA [HBB_Y131_A129D],0.983
11,DPYHVYIKNRV [KCNE3_Y95],0.874
12,GKVFIYHGSSL [ITGA7_Y458],0.996
13,TESALYGCTVV [KIAA1804_Y724_L729V],0.685
14,EFGEVYKGTLK [EPHA2_Y628_M631T],0.808
15,KWELRYMHSRV [ABCD1_Y281_G277W],1.06
16,TQTPPYVKKHP [LARP1B_Y457],1.01
17,SVESPYGSVTF [NDRG2_Y47_T45S],0.689

row,Sequence,SH2 binding enrichment
1,QRPFVYFFSFL [PTEN_Y176_R173P_YF],1.29
2,TVLEPYADPFF [ZC3H18_Y367_YF],0.779
3,SVVVRYEPPEV [TP53_Y220_P219R],0.967
4,GIVTGYLVLKE [DNMT3B_Y588_A585V],1.11
5,ADLTEYLSTHF [UQCRC1_Y219_YF],0.717
6,VPVPGYTKVPE [SPRR3_Y146_L149V],0.81
7,QMVGMYAFSFM [AVPR2_Y124_S126F_YF],0.654
8,ATHSGYRLNDF [CLDN14_Y233_YF],1.04
9,FEDTLYTVLHR [UNC13D_Y61_A59T_YF],0.771
10,HLEKKYVRRDS [CSF1R_Y708],1.02
11,ASENVYVNIAH [CTSC_Y150],6.93
12,KGEDFYCVTYH [FHL1_Y149_C153Y],0.562
13,EFLRNYFTDKA [DSG2_Y775],1.03
14,LRVKMYNFLRS [ADGRG7_Y760],1.24
15,PPQFSYGLQTQ [SRA1_Y35],0.97
16,YIGVTYKNKED [PDGFRA_Y993_E996K],0.835

# Target: c-Src SH2
# Assay: as above
row,Sequence,SH2 binding enrichment
1,WGLRSYFETSK [MAGED2_Y448_YF],0.882
2,FLAATYPTLGQ [NF1_Y2508_V2511L_YF],0.572
3,DLQDENDFKCK [STAT1_Y170_Y170N],0.43
4,PASLSYLSFEG [EXOSC3_Y143],0.696
5,KHASTYREAAT [DEAF1_Y483],0.625
6,GMKIVYVYVKK [DNAI2_Y5_E2K],0.646
7,QQLDEYQKLLD [LMNA_Y359_E361K],0.699
8,LLKAGYQGVLR [TTPA_Y100_H101Q],1.23
9,EIRTQYEAMAS [GFAP_Y242],2.62
10,PVQDAYQKVVA [HBB_Y131_A129D],1.03
11,DPYHVYIKNRV [KCNE3_Y95],1.09
12,GKVFIYHGSSL [ITGA7_Y458],0.598
13,TESALYGCTVV [KIAA1804_Y724_L729V],0.336
14,EFGEVYKGTLK [EPHA2_Y628_M631T],0.473
15,KWELRYMHSRV [ABCD1_Y281_G277W],0.716
16,TQTPPYVKKHP [LARP1B_Y457],0.629
17,SVESPYGSVTF [NDRG2_Y47_T45S],0.376

row,Sequence,SH2 binding enrichment
1,QRPFVYFFSFL [PTEN_Y176_R173P_YF],0.783
2,TVLEPYADPFF [ZC3H18_Y367_YF],1.32
3,SVVVRYEPPEV [TP53_Y220_P219R],0.882
4,GIVTGYLVLKE [DNMT3B_Y588_A585V],0.735
5,ADLTEYLSTHF [UQCRC1_Y219_YF],0.4
6,VPVPGYTKVPE [SPRR3_Y146_L149V],0.56
7,QMVGMYAFSFM [AVPR2_Y124_S126F_YF],0.353
8,ATHSGYRLNDF [CLDN14_Y233_YF],0.421
9,FEDTLYTVLHR [UNC13D_Y61_A59T_YF],0.711
10,HLEKKYVRRDS [CSF1R_Y708],0.876
11,ASENVYVNIAH [CTSC_Y150],2.4
12,KGEDFYCVTYH [FHL1_Y149_C153Y],0.39
13,EFLRNYFTDKA [DSG2_Y775],0.444
14,LRVKMYNFLRS [ADGRG7_Y760],1.1
15,PPQFSYGLQTQ [SRA1_Y35],0.425
16,YIGVTYKNKED [PDGFRA_Y993_E996K],0.961
